Experimental data: the supplement of paper PMC7125110
Fewer inactive variants are shown than the library holds.

B1: glmS ribozyme (parent)
chain: AUAAAAGCGCCAGAACUACAGAAAUGUAGUUGACGAGGAGGAGGUUUAUCGAAUUUUCGGCGGAUGCCUCCAAA

Experiments:
Details in all cases: with glucosamine-6-phosphate
glucosamine-6-phosphate [1] = variants of: B1; assay: self-cleavage kobs at 40 uM GlcN6P; higher = faster cleavage; RNA array
Procedure, shortened: (§1)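 Tracking of barcoded ribozyme variants used a hybridised Cy3 probe at 37 °C, after in situ transcription by E. coli RNA polymerase on sequenced MiSeq chips. The flowed solution held 40 μM to 10 mM glucosamine-6-phosphate in HEPES/KCl/Mg(OAc)2 buffer, and imaging ran over ~14 h. kobs was taken from exponential decay fits of normalised per-tile medians, and kcat and KM from weighted Michaelis–Menten fits.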

glucosamine-6-phosphate [2] = variants of: B1; assay: self-cleavage kobs at 10000 uM GlcN6P; higher = faster cleavage; RNA array
Procedure, shortened: as §1

glucosamine-6-phosphate [3] = variants of: B1; assay: self-cleavage kobs at 160 uM GlcN6P; higher = faster cleavage; RNA array
Procedure, shortened: as §1

glucosamine-6-phosphate [4] = variants of: B1; assay: self-cleavage kobs at 640 uM GlcN6P; higher = faster cleavage; RNA array
Procedure, shortened: as §1

glucosamine-6-phosphate [5] = variants of: B1; assay: self-cleavage kobs at 2500 uM GlcN6P; higher = faster cleavage; RNA array
Procedure, shortened: as §1

Variant: AUAAAUGGGCCAGAACUACAGAAAUGUAGUUGACGAGCAGGAAGUUUAUCGAAUUUUCGGCGGAUGCCUCCAAA [A6U C8G G38C G43A]
- self-cleavage kobs at 40 uM GlcN6P (glucosamine-6-phosphate [1]): < 1e-05 s⁻¹
- self-cleavage kobs at 10000 uM GlcN6P (glucosamine-6-phosphate [2]): < 1e-05 s⁻¹

Variant: AUAAAUGCGCCAGAACUACAGAAAUGUAGUUGCCGAGGAGGAGGUUUAUCGAAUUUUCGGCGGAUGCCUCCAAA [A6U A33C]
- self-cleavage kobs at 40 uM GlcN6P (glucosamine-6-phosphate [1]): < 1e-05 s⁻¹
- self-cleavage kobs at 160 uM GlcN6P (glucosamine-6-phosphate [3]): < 1e-05 s⁻¹
- self-cleavage kobs at 640 uM GlcN6P (glucosamine-6-phosphate [4]): < 1e-05 s⁻¹
- self-cleavage kobs at 2500 uM GlcN6P (glucosamine-6-phosphate [5]): < 1e-05 s⁻¹

Variant: AUAAAUGCGCCAGAACUACAGAAAUGUAGUUGACGAGGAGGAGGUUUAUCGAAUUUUUGGCGGAUGCCUCCAAA [A6U C58U]
- self-cleavage kobs at 40 uM GlcN6P (glucosamine-6-phosphate [1]): < 1e-05 s⁻¹
- self-cleavage kobs at 160 uM GlcN6P (glucosamine-6-phosphate [3]): < 1e-05 s⁻¹
- self-cleavage kobs at 640 uM GlcN6P (glucosamine-6-phosphate [4]): < 1e-05 s⁻¹
- self-cleavage kobs at 2500 uM GlcN6P (glucosamine-6-phosphate [5]): < 1e-05 s⁻¹
- self-cleavage kobs at 10000 uM GlcN6P (glucosamine-6-phosphate [2]): < 1e-05 s⁻¹

Variant: AUAAAUGCGCCAGAACUACAGAAAUGUAGUUGACGAGGAGGAGGUUUAUAGAAUUUUCGGCGGAUGCCUCCAAA [A6U C50A]
- self-cleavage kobs at 40 uM GlcN6P (glucosamine-6-phosphate [1]): < 1e-05 s⁻¹
- self-cleavage kobs at 160 uM GlcN6P (glucosamine-6-phosphate [3]): < 1e-05 s⁻¹
- self-cleavage kobs at 640 uM GlcN6P (glucosamine-6-phosphate [4]): < 1e-05 s⁻¹

Variant: AUAAAUGCGCCAGAAUUACAGAAAUGUAGUUGACGAGAAGGAGGUUUAUCGAAUUUUCGGCGGAUGCCUCCAAA [A6U C16U G38A]
- self-cleavage kobs at 40 uM GlcN6P (glucosamine-6-phosphate [1]): < 1e-05 s⁻¹
- self-cleavage kobs at 640 uM GlcN6P (glucosamine-6-phosphate [4]): < 1e-05 s⁻¹
- self-cleavage kobs at 2500 uM GlcN6P (glucosamine-6-phosphate [5]): < 1e-05 s⁻¹

Variant: AUAAAUGCGACAGAACUACAGAAAUGUAGUUGACGAGGAGCAGGUAUAUCGAAUUUUCGGCGGAUGCCUACAAA [A6U C10A G41C U46A C70A]
- self-cleavage kobs at 40 uM GlcN6P (glucosamine-6-phosphate [1]): < 1e-05 s⁻¹
- self-cleavage kobs at 2500 uM GlcN6P (glucosamine-6-phosphate [5]): < 1e-05 s⁻¹
- self-cleavage kobs at 10000 uM GlcN6P (glucosamine-6-phosphate [2]): < 1e-05 s⁻¹

Variant: AUAAAUACGCCAGAACUACAGAAAUGUAGUUGACGAGGAGGAGUUUUAUCGUAUCUUCGGCGGUUGCCUCCAAA [A6U G7A G44U A52U U55C A64U]
- self-cleavage kobs at 40 uM GlcN6P (glucosamine-6-phosphate [1]): < 1e-05 s⁻¹
- self-cleavage kobs at 640 uM GlcN6P (glucosamine-6-phosphate [4]): < 1e-05 s⁻¹
- self-cleavage kobs at 10000 uM GlcN6P (glucosamine-6-phosphate [2]): < 1e-05 s⁻¹

Variant: AUAAAUGCGCCAGAACUACAGAAAUGUAGUUGUCGAGGAGGAGGUUUAUCGAAUUUUCGGCGGGUGCCUCCAAA [A6U A33U A64G]
- self-cleavage kobs at 40 uM GlcN6P (glucosamine-6-phosphate [1]): < 1e-05 s⁻¹
- self-cleavage kobs at 2500 uM GlcN6P (glucosamine-6-phosphate [5]): < 1e-05 s⁻¹

Variant: AUAAAUGUGCCAGAACUACAGAAAUGUAGUUGACGAGGAGGAGGUUUAUCGAAUUUUCGGCGGAUGCCUCCAAA [A6U C8U]
- self-cleavage kobs at 40 uM GlcN6P (glucosamine-6-phosphate [1]): < 1e-05 s⁻¹
- self-cleavage kobs at 160 uM GlcN6P (glucosamine-6-phosphate [3]): < 1e-05 s⁻¹
- self-cleavage kobs at 640 uM GlcN6P (glucosamine-6-phosphate [4]): < 1e-05 s⁻¹
- self-cleavage kobs at 2500 uM GlcN6P (glucosamine-6-phosphate [5]): < 1e-05 s⁻¹
- self-cleavage kobs at 10000 uM GlcN6P (glucosamine-6-phosphate [2]): < 1e-05 s⁻¹

Variant: AUAAAUCGGCCAGAACUACAGAAAUGUAGUUGACGAGUAGGAGGUUUAUCGAAUUUUCGGCGGAUGCCUCCAAA [A6U G7C C8G G38U]
- self-cleavage kobs at 40 uM GlcN6P (glucosamine-6-phosphate [1]): < 1e-05 s⁻¹
- self-cleavage kobs at 640 uM GlcN6P (glucosamine-6-phosphate [4]): < 1e-05 s⁻¹

Variant: AUAAAUGCGCCACAAAUACAGAAAUGUAGUUGACGAGGAGGAGGGUUAUCGAAUUUUCGGCGGAUGCCUCCAAA [A6U G13C C16A U45G]
- self-cleavage kobs at 40 uM GlcN6P (glucosamine-6-phosphate [1]): < 1e-05 s⁻¹

Variant: AUAAAUGCGCCAGAACUACAGAAAUGUAGUUGACCAGGAGGAGGUUUAUCGAAUUUUCGGCAGAUGCCUCCAAA [A6U G35C G62A]
- self-cleavage kobs at 40 uM GlcN6P (glucosamine-6-phosphate [1]): < 1e-05 s⁻¹
- self-cleavage kobs at 160 uM GlcN6P (glucosamine-6-phosphate [3]): < 1e-05 s⁻¹
- self-cleavage kobs at 640 uM GlcN6P (glucosamine-6-phosphate [4]): < 1e-05 s⁻¹
- self-cleavage kobs at 2500 uM GlcN6P (glucosamine-6-phosphate [5]): < 1e-05 s⁻¹
- self-cleavage kobs at 10000 uM GlcN6P (glucosamine-6-phosphate [2]): < 1e-05 s⁻¹

Variant: AUAAAUUCGCCAGAACUACAGAAAUGUAGUUGACGGGGAGGAGGUUUACCGAAUUUUGGGCGGAUGCCUCCAAA [A6U G7U A36G U49C C58G]
- self-cleavage kobs at 40 uM GlcN6P (glucosamine-6-phosphate [1]): < 1e-05 s⁻¹
- self-cleavage kobs at 640 uM GlcN6P (glucosamine-6-phosphate [4]): < 1e-05 s⁻¹
- self-cleavage kobs at 2500 uM GlcN6P (glucosamine-6-phosphate [5]): < 1e-05 s⁻¹
- self-cleavage kobs at 10000 uM GlcN6P (glucosamine-6-phosphate [2]): < 1e-05 s⁻¹

Variant: AUAAAUGCGCUAGAACUACAGAAAUGUAGUUUACGAGGAGGAGGUUUAUCGAAUUUUCGGCGGAUGCCUCCAAA [A6U C11U G32U]
- self-cleavage kobs at 40 uM GlcN6P (glucosamine-6-phosphate [1]): < 1e-05 s⁻¹
- self-cleavage kobs at 10000 uM GlcN6P (glucosamine-6-phosphate [2]): < 1e-05 s⁻¹

Variant: AUAAAUGCGCCAGAACUACAGAAAUGUAGUUGACGAGGAGGAGGUUUGUCCAAUUUUCCGCGGAUGCCUCCAAA [A6U A48G G51C G59C]
- self-cleavage kobs at 40 uM GlcN6P (glucosamine-6-phosphate [1]): < 1e-05 s⁻¹
- self-cleavage kobs at 10000 uM GlcN6P (glucosamine-6-phosphate [2]): < 1e-05 s⁻¹

Variant: AUAAAUGCGCCAGAAUUACAGAAAUGUAGUUCACGAGGAGGUGGUUUAUCGAAUUUGCGGCGGAUGCCUCCAAA [A6U C16U G32C A42U U57G]
- self-cleavage kobs at 40 uM GlcN6P (glucosamine-6-phosphate [1]): < 1e-05 s⁻¹

Variant: AUAAAUGCGCCAGAACUACAGAAAUGUAGUUGACGGGGAGGAGGUUUAUCGAAUUUUCGGCGGAUGCCUCCAAA [A6U A36G]
- self-cleavage kobs at 40 uM GlcN6P (glucosamine-6-phosphate [1]): < 1e-05 s⁻¹
- self-cleavage kobs at 160 uM GlcN6P (glucosamine-6-phosphate [3]): < 1e-05 s⁻¹
- self-cleavage kobs at 640 uM GlcN6P (glucosamine-6-phosphate [4]): < 1e-05 s⁻¹
- self-cleavage kobs at 10000 uM GlcN6P (glucosamine-6-phosphate [2]): < 1e-05 s⁻¹

Variant: AUAAAUGCGACAGAACUACAGAAAUGUAGUUGACGAGGAAGAGGUGUAUCGAAUUUUCGGCGGAUGCCUCCAAA [A6U C10A G40A U46G]
- self-cleavage kobs at 40 uM GlcN6P (glucosamine-6-phosphate [1]): < 1e-05 s⁻¹
- self-cleavage kobs at 10000 uM GlcN6P (glucosamine-6-phosphate [2]): < 1e-05 s⁻¹

Variant: AUAAAUGCGCCAGAACUACAGAAAUGUAGUUGACGAGGAGGAGGUUUAUCGCAUUUUCGGCGGAUGCCUCCAAA [A6U A52C]
- self-cleavage kobs at 40 uM GlcN6P (glucosamine-6-phosphate [1]): < 1e-05 s⁻¹
- self-cleavage kobs at 160 uM GlcN6P (glucosamine-6-phosphate [3]): < 1e-05 s⁻¹
- self-cleavage kobs at 640 uM GlcN6P (glucosamine-6-phosphate [4]): < 1e-05 s⁻¹
- self-cleavage kobs at 2500 uM GlcN6P (glucosamine-6-phosphate [5]): < 1e-05 s⁻¹
- self-cleavage kobs at 10000 uM GlcN6P (glucosamine-6-phosphate [2]): < 1e-05 s⁻¹

Variant: AUAAAUGCCCCAGAACUACAGAAAUGUAGUUGACGAGGAGGAGGUUUAUCGAAUUUUCGGCGGAUGCCUCCAAA [A6U G9C]
- self-cleavage kobs at 40 uM GlcN6P (glucosamine-6-phosphate [1]): < 1e-05 s⁻¹
- self-cleavage kobs at 640 uM GlcN6P (glucosamine-6-phosphate [4]): < 1e-05 s⁻¹
- self-cleavage kobs at 10000 uM GlcN6P (glucosamine-6-phosphate [2]): < 1e-05 s⁻¹

Variant: AUAAAUGCGCCAGAACUACAGAAAUGUAUUUGACGAGAAGGAGGUUUAUCGAAUUUUAGGCGGAUGCCUCCAAA [A6U G29U G38A C58A]
- self-cleavage kobs at 40 uM GlcN6P (glucosamine-6-phosphate [1]): < 1e-05 s⁻¹

Variant: AUAAAUGCGCCAGAACUACAGAAAUGUAGUUGAGGAGGAGGAGGUUUAUCGAAUUUUCGGCGGAUGCCUCCAAA [A6U C34G]
- self-cleavage kobs at 40 uM GlcN6P (glucosamine-6-phosphate [1]): < 1e-05 s⁻¹
- self-cleavage kobs at 160 uM GlcN6P (glucosamine-6-phosphate [3]): < 1e-05 s⁻¹
- self-cleavage kobs at 2500 uM GlcN6P (glucosamine-6-phosphate [5]): < 1e-05 s⁻¹
- self-cleavage kobs at 10000 uM GlcN6P (glucosamine-6-phosphate [2]): < 1e-05 s⁻¹

Variant: AUAAAUGCGCCAGAACUACAGAAAUGUAGUUGGCGAGGAGAAGGUUUAUCGAAUUUUCGGCGGUUGCCUCCAAA [A6U A33G G41A A64U]
- self-cleavage kobs at 40 uM GlcN6P (glucosamine-6-phosphate [1]): < 1e-05 s⁻¹
- self-cleavage kobs at 160 uM GlcN6P (glucosamine-6-phosphate [3]): < 1e-05 s⁻¹
- self-cleavage kobs at 640 uM GlcN6P (glucosamine-6-phosphate [4]): < 1e-05 s⁻¹
- self-cleavage kobs at 2500 uM GlcN6P (glucosamine-6-phosphate [5]): < 1e-05 s⁻¹

Variant: AUAAAUGCGCCAGAACUACAGAAAUGUAGUUGACCAGGAGGAGGUUUAUCCAAUUUUCGGCGGAGGCCUCCAAA [A6U G35C G51C U65G]
- self-cleavage kobs at 40 uM GlcN6P (glucosamine-6-phosphate [1]): < 1e-05 s⁻¹

Variant: AUAAAUGCGCCAGAACUACAGAAAUGUAGUUGUCGGGCAGGAGGUGUAUCGAAUUUUCGGUGGAUGCCUCCAAA [A6U A33U A36G G38C U46G C61U]
- self-cleavage kobs at 40 uM GlcN6P (glucosamine-6-phosphate [1]): < 1e-05 s⁻¹

Variant: AUAAAUGCGCCAGAACUACAGAAAUGUAGUUGACGAGGAGGAGGUUUUUCGAAUUUUCGGCGGAUGCCUUCAAA [A6U A48U C70U]
- self-cleavage kobs at 40 uM GlcN6P (glucosamine-6-phosphate [1]): < 1e-05 s⁻¹

Variant: AUAAAUGCGAGCGAACUACAGAAAUGUAGUUGACGAGGAGGAGGUUUAUCGAACUUUCGGCGGAUGCCUCCAAA [A6U C10A C11G A12C U54C]
- self-cleavage kobs at 40 uM GlcN6P (glucosamine-6-phosphate [1]): < 1e-05 s⁻¹
- self-cleavage kobs at 10000 uM GlcN6P (glucosamine-6-phosphate [2]): < 1e-05 s⁻¹
